Target: T1, human IL-10 receptor (human) (UniProt Q13651)
T1 sequence 1: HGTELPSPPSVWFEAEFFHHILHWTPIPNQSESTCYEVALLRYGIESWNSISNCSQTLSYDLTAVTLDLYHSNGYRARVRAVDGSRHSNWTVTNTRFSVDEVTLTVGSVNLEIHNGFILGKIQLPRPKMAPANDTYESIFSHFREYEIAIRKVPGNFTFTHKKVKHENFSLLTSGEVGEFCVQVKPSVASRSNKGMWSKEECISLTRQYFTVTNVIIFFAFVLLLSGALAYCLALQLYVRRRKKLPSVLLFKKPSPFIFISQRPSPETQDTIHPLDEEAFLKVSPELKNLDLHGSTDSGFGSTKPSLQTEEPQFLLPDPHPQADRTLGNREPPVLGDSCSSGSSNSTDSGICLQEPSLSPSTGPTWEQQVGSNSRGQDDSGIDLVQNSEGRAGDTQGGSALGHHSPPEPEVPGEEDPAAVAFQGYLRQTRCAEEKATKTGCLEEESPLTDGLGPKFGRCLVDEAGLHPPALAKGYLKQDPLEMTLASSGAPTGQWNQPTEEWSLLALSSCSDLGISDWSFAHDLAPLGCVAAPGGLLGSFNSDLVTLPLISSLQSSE
T1 sequence 2: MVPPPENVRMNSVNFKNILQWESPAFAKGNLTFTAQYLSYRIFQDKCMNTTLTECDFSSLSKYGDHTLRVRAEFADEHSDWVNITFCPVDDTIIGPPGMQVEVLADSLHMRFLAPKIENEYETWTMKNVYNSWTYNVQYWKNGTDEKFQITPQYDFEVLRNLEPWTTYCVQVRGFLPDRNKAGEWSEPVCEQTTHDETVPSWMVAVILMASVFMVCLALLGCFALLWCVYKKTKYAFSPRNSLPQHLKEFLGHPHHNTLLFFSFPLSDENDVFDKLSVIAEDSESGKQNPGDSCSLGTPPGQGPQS

Chain of recombinant bovine IL-10 (P43480 19-178): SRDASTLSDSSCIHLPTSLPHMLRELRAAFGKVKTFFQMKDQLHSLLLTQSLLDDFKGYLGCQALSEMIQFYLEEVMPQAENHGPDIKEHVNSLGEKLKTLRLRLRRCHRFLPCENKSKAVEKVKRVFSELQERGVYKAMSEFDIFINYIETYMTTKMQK

Question: With “recombinant bovine IL-10 (from UniProt P43480 19-178) (ligand)” as the substance, how does the CD83 expression by LPS stimulated DCs, average percentage compared to cells only stimulated with LPS; bovine IL-10 0.25-20 ng/ml (130.5 at 0.25 ng/ml falling to 38.2 at 20 ng/ml) (% of cells only stimulated with LPS) read?
Answer: 130

Question: And the CD86 expression by LPS stimulated DCs, average percentage compared to cells only stimulated with LPS; bovine IL-10 0.25-20 ng/ml (106.3 at 0.25 ng/ml falling to 51.0 at 20 ng/ml) (% of cells only stimulated with LPS)?
Answer: 106

Question: And the IL-1β production by LPS stimulated monocytes with 10 ng/ml bovine IL-10, average percentage compared to cells only stimulated with LPS (% of cells only stimulated with LPS)?
Answer: 30.3

Question: What about the IL-12 production by LPS stimulated DCs, average percentage compared to cells only stimulated with LPS; bovine IL-10 0.25-20 ng/ml (102.9 at 0.25 ng/ml falling to 1.5 at 20 ng/ml) (% of cells only stimulated with LPS) of the same substance?
Answer: 103

Question: What about the TNF-α production by LPS stimulated DCs, average percentage compared to cells only stimulated with LPS; bovine IL-10 0.25-20 ng/ml (143.9 at 0.25 ng/ml falling to 0.9 at 20 ng/ml) (% of cells only stimulated with LPS) of the same substance?
Answer: 144

Question: What about the TNF-α production by LPS stimulated monocytes with 10 ng/ml bovine IL-10, average percentage compared to cells only stimulated with LPS (% of cells only stimulated with LPS) of the same substance?
Answer: 14.2

From publication PMC3064667
